Patent US6893638
Read-outs that look alike come from different tables or passages of the source.

T1: membrane associated human B7.1 on cells (human, UniProt P33681 35-288)
T1 sequence (looked up): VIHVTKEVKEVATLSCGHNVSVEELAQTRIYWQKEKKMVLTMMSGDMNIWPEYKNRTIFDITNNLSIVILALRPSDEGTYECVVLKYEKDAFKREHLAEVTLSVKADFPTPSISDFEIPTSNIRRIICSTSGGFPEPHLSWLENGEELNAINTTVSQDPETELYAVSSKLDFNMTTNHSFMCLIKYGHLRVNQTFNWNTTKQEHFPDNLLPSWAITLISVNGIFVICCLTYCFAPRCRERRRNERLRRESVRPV

T2: B7.1/Ig fusion protein (human, UniProt P33681 35-242, 125I radiolabel where used as tracer)
T2 construct: Secreted from CHO cells; also called B7-Ig; not shown: human immunoglobulin CH2 and CH3 domains of the NEOSPLA cassette vector; isotype
T2 sequence (looked up): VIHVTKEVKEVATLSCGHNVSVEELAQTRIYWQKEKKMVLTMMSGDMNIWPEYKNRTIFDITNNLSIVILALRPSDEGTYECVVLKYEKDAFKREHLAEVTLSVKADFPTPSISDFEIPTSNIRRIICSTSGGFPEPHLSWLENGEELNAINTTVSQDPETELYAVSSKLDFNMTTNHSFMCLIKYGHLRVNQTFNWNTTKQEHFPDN


Key:
[1] = target: T1, membrane associated human B7.1 on cells; assay: cell-based or functional assay
B7.1/Ig fusion protein [2] = target: T2, B7.1/Ig fusion protein; assay: Scatchard analysis, binding to B7-Ig coated plates
B7.1/Ig fusion protein [3] = target: T2, B7.1/Ig fusion protein; assay: Scatchard analysis, binding to B7-Ig coated plates; remark: listed apart in the source

Row | inhibit IL-2 production in mixed lymphocyte reaction [1] [µg/mL] | Kd (B7.1/Ig fusion protein [2]) [nM] | Kd (B7.1/Ig fusion protein [3]) [nM] | Binder
1 | 5 | ~10.7 | ~10.7 | monkey monoclonal anti-B7.1 antibody 7B6 (antibody, V domains shown, Tested as the original cynomolgus monkey Ig from a heterohybridoma) VH: EVQLVESGGGLVQPGGSLRVSCAVSGFTFSDHYMYWFRQAPGKGPEWVGFIRNKPNGGTTEYAASVKDRFTISRDDSKSIAYLQMSSLKIEDTAVYYCTTSYISHCRGGVCYGGYFEFWGQGALVTVSS VL: EVVMTQSPLSLPITPGEPASISCRSSQSLKHSNGDTFLSWYQQKPGQPPRLLIYKVSNRDSGVPDRFSGSGAGTDFTLKISAVEAEDVGVYFCGQGTRTPPTFGGGTKVEIK
2 | 0.1 | ~8.1 | ~8.1 | monkey monoclonal anti-B7.1 antibody 16C10 (antibody, V domains shown, Tested as the original cynomolgus monkey Ig from a heterohybridoma) VH: QVQLQESGPGLVKPSETLSLTCAVSGGSISGGYGWGWIRQPPGKGLEWIGSFYSSSGNTYYNPSLKSQVTISTDTSKNQFSLKLNSMTAADTAVYYCVRDRLFSVVGMVYNNWFDVWGPGVLVTVSS VL: ESVLTQPPSVSGAPGQKVTISCTGSTSNIGGYDLHWYQQLPGTAPKLLIYDINKRPSGISDRFSGSKSGTAASLAITGLQTEDEADYYCQSYDSSLNAQVFGGGTRLTVL
3 | 5 | ~6.2 | ~6.2 | monkey monoclonal anti-B7.1 antibody 7C10 (antibody, V domains shown, Tested as the original cynomolgus monkey Ig from a heterohybridoma; A leader may be included in the entries; also called 7C10 monkey Ig) VH: QVKLQQWGEGLLQPSETLSRTCVVSGGSISGYYYWTWIRQTPGRGLEWIGHIYGNGATTNYNPSLKSRVTISKDTSKNQFFLNLNSVTDADTAVYYCARGPRPDCTTICYGGWVDVWGPGDLVTVSS VL: AYELTQPPSVSVSPGQTARITCGGDNSRNEYVHWYQQKPARAPILVIYDDSDRPSGIPERFSGSKSGNTATLTINGVEAGDEADYYCQVWDRASDHPVFGGGTRVTVL
